Test results taken from paper PMC3272701.

Molecular target: tight-coupled 70S ribosome from Thermus thermophilus (Thermus thermophilus)
Experiment: co-sedimentation

occupancy of EF-G in the complexes: 60 to 70%
Substance: elongation factor G (EF-G), Thermus thermophilus HB8 (from UniProt Q5SHN5 1-691) (enzyme)
